In US20160200782A1:

Legend:
Test in all cases: cell-based or functional assay
[1] = molecular target: FGFR1(h) (human) (UniProt P11362)
[2] = molecular target: Ron(h) (human) (UniProt Q04912)
[3] = molecular target: CDK1/cyclinB(h) (human) (UniProt P06493)
[4] = molecular target: MLK1(h) (human) (UniProt P80192)
[5] = molecular target: Bmx(h) (human) (UniProt P51813)
[6] = molecular target: Rsk4(h) (human) (UniProt Q9UK32)
[7] = molecular target: PASK(h) (human) (UniProt Q96RG2)
[8] = molecular target: CDK2/cyclinE(h) (human) (UniProt P24941)
[9] = molecular target: MuSK(h) (human) (UniProt O15146)
[10] = molecular target: CDK2/cyclinA(h) (human) (UniProt P24941)
[11] = molecular target: Fes(h) (human) (UniProt P07332)
[12] = molecular target: BTK(R28H)(h) (human) (UniProt Q06187)
[13] = molecular target: Mer(h) (human) (UniProt Q12866)
[14] = molecular target: cKit(V654A)(h) (human) (UniProt P10721)
[15] = molecular target: Ax1(h) (human) (UniProt P30530)
[16] = molecular target: Src(T341M)(h) (human) (UniProt P12931)
[17] = molecular target: DAPK1(h) (human) (UniProt P53355)
[18] = molecular target: NEK7(h) (human) (UniProt Q8TDX7)
[19] = molecular target: Itk(h) (human) (UniProt Q08881)
[20] = molecular target: SAPK2a(T106M)(h) (human) (UniProt Q16539)
[21] = molecular target: PhKγ2(h) (human) (UniProt P15735)
[22] = molecular target: Flt3(h) (human) (UniProt P36888)
[23] = molecular target: ARK5(h) (human) (UniProt O60285)
[24] = molecular target: EphA1(h) (human) (UniProt P21709)
[25] = molecular target: NEK6(h) (human) (UniProt Q9HC98)
[26] = molecular target: EphB4(h) (human) (UniProt P54760)
[27] = molecular target: PRAK(h) (human) (UniProt Q8IW41)
[28] = molecular target: MST2(h) (human) (UniProt Q13188)
[29] = molecular target: TrkB(h) (human) (UniProt Q16620)
[30] = molecular target: HIPK1(h) (human) (UniProt Q86Z02)
[31] = molecular target: Rse(h) (human) (UniProt Q06418)
[32] = molecular target: SGK(h) (human) (UniProt O00141)
[33] = molecular target: BRK(h) (human) (UniProt Q13882)
[34] = molecular target: CaMKIV(h) (human) (UniProt Q16566)
[35] = molecular target: BrSK1(h) (human) (UniProt Q8TDC3)
[36] = molecular target: mTOR/FKBP12(h) (human) (UniProt P42345)
[37] = molecular target: Syk(h) (human) (UniProt P43405)
[38] = molecular target: PKCδ(h) (human) (UniProt Q05655)
[39] = molecular target: Ab1(Y253F)(h) (human) (UniProt P00519)
[40] = molecular target: EGFR(T790M,L858R)(h) (human) (UniProt P00533)
[41] = molecular target: Met(D1246N)(h) (human) (UniProt P08581)
[42] = molecular target: Flt4(h) (human) (UniProt P35916)
[43] = molecular target: HIPK2(h) (human) (UniProt Q9H2X6)
[44] = molecular target: Pim-1(h) (human) (UniProt P11309)
[45] = molecular target: Ab1(M351T)(h) (human) (UniProt P00519)
[46] = molecular target: p70S6K(h) (human) (UniProt P23443)
[47] = molecular target: IKKβ(h) (human) (UniProt O14920)
[48] = molecular target: Met(Y1248H)(h) (human) (UniProt P08581)
[49] = molecular target: PrKX(h) (human) (UniProt P51817)
[50] = molecular target: Ab1(h) (human) (UniProt P00519)
[51] = molecular target: EphA3(h) (human) (UniProt P29320)
[52] = molecular target: CHK2(h) (human) (UniProt O96017)
[53] = molecular target: EphA4(h) (human) (UniProt P54764)
[54] = molecular target: Flt3(D835Y)(h) (human) (UniProt P36888)
[55] = molecular target: Lyn(h) (human) (UniProt P07948)
[56] = molecular target: CK1δ(h) (human) (UniProt P48730)

Sequence of PRAK(h) (human) (Q8IW41 whole entry): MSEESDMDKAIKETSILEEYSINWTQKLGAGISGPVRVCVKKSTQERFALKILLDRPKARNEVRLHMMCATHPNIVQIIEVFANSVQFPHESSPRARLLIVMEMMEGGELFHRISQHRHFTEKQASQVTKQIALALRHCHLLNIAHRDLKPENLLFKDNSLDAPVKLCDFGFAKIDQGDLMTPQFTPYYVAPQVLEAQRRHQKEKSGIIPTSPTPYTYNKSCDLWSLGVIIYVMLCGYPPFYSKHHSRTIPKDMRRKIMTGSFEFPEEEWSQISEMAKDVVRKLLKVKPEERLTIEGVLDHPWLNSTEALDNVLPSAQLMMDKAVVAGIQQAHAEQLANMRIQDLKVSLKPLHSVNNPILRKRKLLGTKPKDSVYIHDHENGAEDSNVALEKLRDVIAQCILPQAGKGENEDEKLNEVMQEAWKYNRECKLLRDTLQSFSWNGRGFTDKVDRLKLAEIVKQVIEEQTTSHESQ
Sequence of ARK5(h) (human) (O60285 whole entry): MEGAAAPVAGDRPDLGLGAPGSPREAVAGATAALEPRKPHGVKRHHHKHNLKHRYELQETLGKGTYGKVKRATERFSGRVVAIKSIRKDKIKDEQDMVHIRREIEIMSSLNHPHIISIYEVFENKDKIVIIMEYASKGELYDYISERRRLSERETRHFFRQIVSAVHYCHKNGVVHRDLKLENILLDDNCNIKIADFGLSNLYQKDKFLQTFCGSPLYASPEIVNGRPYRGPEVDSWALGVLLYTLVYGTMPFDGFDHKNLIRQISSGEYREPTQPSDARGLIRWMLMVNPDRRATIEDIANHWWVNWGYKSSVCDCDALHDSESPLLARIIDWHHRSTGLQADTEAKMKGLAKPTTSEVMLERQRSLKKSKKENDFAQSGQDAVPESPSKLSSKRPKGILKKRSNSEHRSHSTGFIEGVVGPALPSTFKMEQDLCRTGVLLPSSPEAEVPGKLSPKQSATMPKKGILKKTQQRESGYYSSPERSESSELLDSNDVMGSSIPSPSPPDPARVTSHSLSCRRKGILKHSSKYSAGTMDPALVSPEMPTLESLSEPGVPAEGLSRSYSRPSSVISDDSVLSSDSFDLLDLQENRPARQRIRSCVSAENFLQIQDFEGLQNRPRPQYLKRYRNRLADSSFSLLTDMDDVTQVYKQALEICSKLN
Sequence of DAPK1(h) (human) (P53355 1-289 limits assumed): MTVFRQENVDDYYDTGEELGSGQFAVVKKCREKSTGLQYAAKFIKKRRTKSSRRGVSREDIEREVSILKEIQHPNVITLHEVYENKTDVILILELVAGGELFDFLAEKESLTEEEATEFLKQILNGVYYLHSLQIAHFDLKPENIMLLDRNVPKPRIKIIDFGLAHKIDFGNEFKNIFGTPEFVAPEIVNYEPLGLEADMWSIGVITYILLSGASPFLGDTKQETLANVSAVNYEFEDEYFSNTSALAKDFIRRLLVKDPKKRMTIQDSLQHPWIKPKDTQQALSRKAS
Sequence of EphA1(h) (human) (P21709 569-976 limits assumed): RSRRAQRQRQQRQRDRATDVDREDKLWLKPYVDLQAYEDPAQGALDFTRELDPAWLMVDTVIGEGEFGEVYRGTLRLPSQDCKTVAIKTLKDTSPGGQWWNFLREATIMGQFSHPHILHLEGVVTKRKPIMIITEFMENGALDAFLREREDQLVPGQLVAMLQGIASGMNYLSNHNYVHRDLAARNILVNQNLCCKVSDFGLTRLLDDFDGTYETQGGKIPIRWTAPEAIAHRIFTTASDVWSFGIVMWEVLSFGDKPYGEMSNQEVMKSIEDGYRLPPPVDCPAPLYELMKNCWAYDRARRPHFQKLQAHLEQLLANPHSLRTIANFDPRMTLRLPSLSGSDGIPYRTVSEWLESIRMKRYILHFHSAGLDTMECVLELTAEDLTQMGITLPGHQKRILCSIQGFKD
Sequence of EphB4(h) (human) (P54760 561-987 limits assumed): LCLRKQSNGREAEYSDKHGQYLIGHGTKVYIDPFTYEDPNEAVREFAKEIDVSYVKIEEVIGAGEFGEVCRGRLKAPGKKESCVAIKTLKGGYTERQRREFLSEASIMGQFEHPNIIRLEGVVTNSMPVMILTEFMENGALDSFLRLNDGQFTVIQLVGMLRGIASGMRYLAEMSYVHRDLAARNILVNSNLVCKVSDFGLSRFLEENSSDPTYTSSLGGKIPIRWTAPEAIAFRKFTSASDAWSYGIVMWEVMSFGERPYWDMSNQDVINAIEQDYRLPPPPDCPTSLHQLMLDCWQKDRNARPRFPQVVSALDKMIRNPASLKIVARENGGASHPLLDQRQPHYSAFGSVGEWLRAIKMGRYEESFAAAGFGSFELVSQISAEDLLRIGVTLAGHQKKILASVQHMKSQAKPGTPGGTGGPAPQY
Sequence of Ab1(Y253F)(h) (human) (P00519 27-1130 Y253F limits assumed): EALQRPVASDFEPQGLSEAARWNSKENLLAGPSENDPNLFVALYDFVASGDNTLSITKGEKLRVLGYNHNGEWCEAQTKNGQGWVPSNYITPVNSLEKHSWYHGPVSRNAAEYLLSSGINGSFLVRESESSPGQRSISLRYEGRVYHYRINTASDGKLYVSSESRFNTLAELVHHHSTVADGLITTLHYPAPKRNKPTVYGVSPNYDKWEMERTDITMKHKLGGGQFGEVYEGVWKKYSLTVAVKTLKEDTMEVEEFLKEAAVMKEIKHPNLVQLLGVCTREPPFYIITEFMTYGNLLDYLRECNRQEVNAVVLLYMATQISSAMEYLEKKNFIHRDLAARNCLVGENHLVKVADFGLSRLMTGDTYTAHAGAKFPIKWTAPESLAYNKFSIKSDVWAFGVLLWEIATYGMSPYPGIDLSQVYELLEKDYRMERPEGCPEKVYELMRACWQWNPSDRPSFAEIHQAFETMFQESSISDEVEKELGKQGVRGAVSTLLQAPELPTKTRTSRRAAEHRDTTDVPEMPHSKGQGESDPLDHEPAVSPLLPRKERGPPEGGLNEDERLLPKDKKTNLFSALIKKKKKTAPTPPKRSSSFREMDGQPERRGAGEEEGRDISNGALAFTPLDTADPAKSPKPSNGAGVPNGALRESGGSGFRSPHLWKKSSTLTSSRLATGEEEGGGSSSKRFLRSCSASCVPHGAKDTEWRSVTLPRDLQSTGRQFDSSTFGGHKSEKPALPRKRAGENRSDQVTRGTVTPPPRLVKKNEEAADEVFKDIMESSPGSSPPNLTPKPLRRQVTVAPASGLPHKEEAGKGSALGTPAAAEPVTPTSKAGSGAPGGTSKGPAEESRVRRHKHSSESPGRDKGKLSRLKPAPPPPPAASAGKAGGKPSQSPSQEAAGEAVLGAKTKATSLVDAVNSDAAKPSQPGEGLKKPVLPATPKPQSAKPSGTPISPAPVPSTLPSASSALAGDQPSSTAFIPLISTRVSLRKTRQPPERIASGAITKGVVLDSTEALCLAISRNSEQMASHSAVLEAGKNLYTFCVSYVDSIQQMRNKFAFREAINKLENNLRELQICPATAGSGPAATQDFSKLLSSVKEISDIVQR
Sequence of Ron(h) (human) (Q04912 983-1400 limits assumed): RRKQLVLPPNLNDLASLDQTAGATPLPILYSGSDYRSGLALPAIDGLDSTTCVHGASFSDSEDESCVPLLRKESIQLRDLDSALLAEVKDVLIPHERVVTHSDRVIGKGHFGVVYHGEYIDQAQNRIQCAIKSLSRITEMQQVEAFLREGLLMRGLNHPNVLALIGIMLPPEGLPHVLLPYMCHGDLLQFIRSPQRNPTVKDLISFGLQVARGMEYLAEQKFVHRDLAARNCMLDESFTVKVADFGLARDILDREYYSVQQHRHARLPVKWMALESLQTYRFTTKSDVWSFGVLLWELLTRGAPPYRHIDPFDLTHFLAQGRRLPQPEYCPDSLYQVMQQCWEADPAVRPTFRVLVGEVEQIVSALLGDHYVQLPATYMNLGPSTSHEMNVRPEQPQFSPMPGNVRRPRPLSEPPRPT
Sequence of CaMKIV(h) (human) (Q16566 whole entry): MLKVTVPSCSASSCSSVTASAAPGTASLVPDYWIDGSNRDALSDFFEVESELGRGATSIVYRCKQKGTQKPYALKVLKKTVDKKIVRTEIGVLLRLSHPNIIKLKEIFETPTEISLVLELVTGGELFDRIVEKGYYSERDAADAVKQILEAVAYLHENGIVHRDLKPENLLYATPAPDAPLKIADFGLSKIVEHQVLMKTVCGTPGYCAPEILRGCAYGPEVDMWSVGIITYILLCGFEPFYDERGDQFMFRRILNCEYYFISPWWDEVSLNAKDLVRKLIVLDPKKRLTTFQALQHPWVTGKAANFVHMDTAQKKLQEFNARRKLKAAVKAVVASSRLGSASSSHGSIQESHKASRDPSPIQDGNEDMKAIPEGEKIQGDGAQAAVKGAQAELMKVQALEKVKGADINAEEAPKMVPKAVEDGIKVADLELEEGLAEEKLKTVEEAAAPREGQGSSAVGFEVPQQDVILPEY
Sequence of PKCδ(h) (human) (Q05655 whole entry, stated change not applied): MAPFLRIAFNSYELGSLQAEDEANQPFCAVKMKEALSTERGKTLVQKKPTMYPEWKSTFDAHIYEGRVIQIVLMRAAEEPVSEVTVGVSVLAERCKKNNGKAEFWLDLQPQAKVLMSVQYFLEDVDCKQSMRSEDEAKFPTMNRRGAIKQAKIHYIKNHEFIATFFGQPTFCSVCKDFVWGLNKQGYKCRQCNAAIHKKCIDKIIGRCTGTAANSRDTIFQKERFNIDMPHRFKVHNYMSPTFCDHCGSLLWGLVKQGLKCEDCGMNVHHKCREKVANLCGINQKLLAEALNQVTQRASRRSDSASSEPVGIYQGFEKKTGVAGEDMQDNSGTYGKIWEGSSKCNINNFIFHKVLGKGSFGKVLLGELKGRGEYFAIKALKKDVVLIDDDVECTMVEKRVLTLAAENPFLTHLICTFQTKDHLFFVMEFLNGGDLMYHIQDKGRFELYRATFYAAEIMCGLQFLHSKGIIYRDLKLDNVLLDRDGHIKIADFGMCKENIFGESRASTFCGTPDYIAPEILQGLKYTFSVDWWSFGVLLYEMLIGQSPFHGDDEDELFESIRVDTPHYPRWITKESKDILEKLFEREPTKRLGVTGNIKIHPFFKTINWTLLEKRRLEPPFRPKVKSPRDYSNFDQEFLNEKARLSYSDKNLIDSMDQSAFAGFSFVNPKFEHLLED
Sequence of Ab1(h) (human) (P00519 27-1130 limits assumed): as the sequence (P00519 27-1130 Y253F limits assumed) above, with F227Y counted along it
Sequence of Ab1(M351T)(h) (human) (P00519 27-1130 M351T limits assumed): as the sequence (P00519 27-1130 Y253F limits assumed) above, with F227Y, M325T counted along it

MMI-0100 (peptide)
% activity [1]: 120% | % activity [2]: 117% | % activity [3]: 96% | % activity [4]: 77% | % activity [5]: 62% | % activity [6]: 99% | % activity [7]: 81% | % activity [8]: 106% | % activity [9]: 85% | % activity [10]: 97% | % activity [11]: 44% | % activity [12]: 91% | % activity [13]: 47% | % activity [14]: 69% | % activity [15]: 81% | % activity [16]: 98% | % activity [17]: 97% | % activity [18]: 97% | % activity [19]: 99% | % activity [20]: 101% | % activity [21]: 62% | % activity [22]: 104% | % activity [23]: 108% | % activity [24]: 114% | % activity [25]: 109% | % activity [26]: 62% | % activity [27]: 159% | % activity [28]: 98% | % activity [29]: 4% | % activity [30]: 94% | % activity [31]: 109% | % activity [32]: 128% | % activity [33]: 70% | % activity [34]: 87% | % activity [35]: 100% | % activity [36]: 117% | % activity [37]: 45% | % activity [38]: 100% | % activity [39]: 104% | % activity [40]: 93% | % activity [41]: 114% | % activity [42]: 135% | % activity [43]: 98% | % activity [44]: 44% | % activity [45]: 128% | % activity [46]: 89% | % activity [47]: 105% | % activity [48]: 88% | % activity [49]: 84% | % activity [50]: 136% | % activity [51]: 107% | % activity [52]: 104% | % activity [53]: 110% | % activity [54]: 120% | % activity [55]: 113% | % activity [56]: 115%

MMI-0200 (peptide)
% activity [1]: 97% | % activity [2]: 120% | % activity [3]: 115% | % activity [4]: 84% | % activity [5]: 76% | % activity [6]: 125% | % activity [7]: 60% | % activity [8]: 112% | % activity [9]: 106% | % activity [10]: 114% | % activity [11]: 74% | % activity [12]: 104% | % activity [13]: 90% | % activity [14]: 113% | % activity [15]: 99% | % activity [16]: 56% | % activity [17]: 113% | % activity [18]: 96% | % activity [19]: 98% | % activity [20]: 100% | % activity [21]: 86% | % activity [22]: 99% | % activity [23]: 93% | % activity [24]: 136% | % activity [25]: 98% | % activity [26]: 131% | % activity [27]: 115% | % activity [28]: 104% | % activity [29]: 7% | % activity [30]: 115% | % activity [31]: 88% | % activity [32]: 115% | % activity [33]: 127% | % activity [34]: 71% | % activity [35]: 93% | % activity [36]: 118% | % activity [37]: 36% | % activity [38]: 101% | % activity [39]: 102% | % activity [40]: 108% | % activity [41]: 149% | % activity [42]: 105% | % activity [43]: 102% | % activity [44]: 18% | % activity [45]: 119% | % activity [46]: 84% | % activity [47]: 109% | % activity [48]: 153% | % activity [49]: 112% | % activity [50]: 107% | % activity [51]: 117% | % activity [52]: 105% | % activity [53]: 127% | % activity [54]: 115% | % activity [55]: 98% | % activity [56]: 92%

MMI-0500 (peptide)
% activity [1]: 18% | % activity [2]: 46% | % activity [3]: 57% | % activity [4]: 43% | % activity [5]: 45% | % activity [6]: 29% | % activity [7]: 9% | % activity [8]: 19% | % activity [9]: 27% | % activity [10]: 87% | % activity [11]: 23% | % activity [12]: 10% | % activity [13]: 17% | % activity [14]: 223% | % activity [15]: 12% | % activity [16]: 59% | % activity [17]: 0% | % activity [18]: 89% | % activity [19]: 7% | % activity [20]: 32% | % activity [21]: 16% | % activity [22]: 17% | % activity [23]: 20% | % activity [24]: 40% | % activity [25]: 49% | % activity [26]: 38% | % activity [27]: 95% | % activity [28]: 2% | % activity [29]: 12% | % activity [30]: 47% | % activity [31]: 63% | % activity [32]: 2% | % activity [33]: 41% | % activity [34]: -1% | % activity [35]: 72% | % activity [36]: 140% | % activity [37]: 5% | % activity [38]: 61% | % activity [39]: 29% | % activity [40]: 53% | % activity [41]: 90% | % activity [42]: 73% | % activity [43]: 38% | % activity [44]: 0% | % activity [45]: 61% | % activity [46]: 3% | % activity [47]: 71% | % activity [48]: 126% | % activity [49]: 57% | % activity [50]: 16% | % activity [51]: 33% | % activity [52]: 13% | % activity [53]: 48% | % activity [54]: 65% | % activity [55]: 31% | % activity [56]: 78%
